Laboratory results: US20090226372A1 (SANFORD BURNHAM MEDICAL RESEARCH INSTITUTE, published 2009)

B1: T7 phage displaying RPARPAR (SEQ ID NO:2) (peptide)
chain: RPARPAR
notes: also called RPARPAR phage; RPARPAR T7; not shown: T7 bacteriophage major coat protein gp10 (T7-select display system); Limits
B2: T7 phage displaying RPARPARA (SEQ ID NO:3) (peptide)
chain: RPARPARA
notes: not shown: T7 bacteriophage major coat protein gp10 (T7-select display system); Limits

Legend:
[1] = molecular target: T1, triple mutant S346A-E348A-T349A NRP-1 expressed on transiently transfected M21 melanoma cells (UniProt O14786 22-923, limits assumed); experiment: phage binding to transiently transfected M21 melanoma cells, titration
T1 construct: whole, on cells; The stated codon change SKET to AKAA gives T349A; also called Mutant NRP-1

[2] = molecular target: T2, wild-type NRP-1 expressed on transiently transfected M21 melanoma cells (UniProt O14786 22-923); experiment: phage incubated with M21 cells transiently transfected with NRP-1, immunostaining and confocal imaging
T2 construct: whole, on cells; the printed SKET at 346-349 fits human NRP-1; also called wild type NRP-1 cDNA in pcDNA3.1(+)
T2 sequence (O14786 22-923 limits assumed): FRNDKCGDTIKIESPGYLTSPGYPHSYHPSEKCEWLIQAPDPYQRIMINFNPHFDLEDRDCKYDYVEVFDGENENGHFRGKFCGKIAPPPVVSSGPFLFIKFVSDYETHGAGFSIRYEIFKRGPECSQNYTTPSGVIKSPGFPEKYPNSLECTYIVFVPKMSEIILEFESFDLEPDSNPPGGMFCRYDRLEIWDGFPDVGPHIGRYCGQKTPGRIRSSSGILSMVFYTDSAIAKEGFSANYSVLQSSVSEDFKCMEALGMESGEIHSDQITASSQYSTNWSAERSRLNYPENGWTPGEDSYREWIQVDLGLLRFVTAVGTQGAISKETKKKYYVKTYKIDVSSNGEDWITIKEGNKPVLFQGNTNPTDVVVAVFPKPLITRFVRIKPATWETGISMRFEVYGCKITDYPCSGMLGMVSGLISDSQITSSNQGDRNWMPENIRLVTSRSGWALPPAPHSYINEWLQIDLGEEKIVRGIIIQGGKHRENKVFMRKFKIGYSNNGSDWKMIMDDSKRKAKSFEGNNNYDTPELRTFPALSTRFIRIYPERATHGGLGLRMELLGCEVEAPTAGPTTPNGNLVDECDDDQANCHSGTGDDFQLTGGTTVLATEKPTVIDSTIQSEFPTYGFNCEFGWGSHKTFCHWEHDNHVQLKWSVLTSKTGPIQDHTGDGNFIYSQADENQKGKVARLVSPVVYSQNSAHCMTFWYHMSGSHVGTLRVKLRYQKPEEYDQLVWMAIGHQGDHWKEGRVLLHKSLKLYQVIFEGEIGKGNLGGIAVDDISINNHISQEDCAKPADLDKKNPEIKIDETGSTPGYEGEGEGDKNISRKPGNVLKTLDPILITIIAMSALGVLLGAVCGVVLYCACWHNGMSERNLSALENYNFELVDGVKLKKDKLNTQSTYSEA

| Binder | binding result [1] | binding result [2] |
| --- | --- | --- |
| B1 | no binding |  |
| B2 |  | no binding |
